What all share (assay): cell_activity
For series [1], the system named is wt dLbCas12a (catalytically inactive LbCas12a) (Lachnospiraceae bacterium ND2006). Particulars: PAM-SCANR in E. coli, cutoff 1.67.
In series [2] the test system is dLbCas12a-T152R-K538W T152R,K538W (Lachnospiraceae bacterium ND2006). As to conditions: PAM TTTC; printed column identical to K538W+K595Y column.
Series [3] relates to dLbCas12a-K538W-K595Y K538W,K595Y (Lachnospiraceae bacterium ND2006).
Series [4] has as its system dLbCas12a-G532R-K595R (RR) G532R,K595R (Lachnospiraceae bacterium ND2006). Particulars: PAM-SCANR in E. coli.
Series [5] deals with dLbCas12a-K538W K538W (Lachnospiraceae bacterium ND2006).
Series [6] deals with dLbCas12a-K595Y K595Y (Lachnospiraceae bacterium ND2006).
In series [7] the test system is dLbCas12a-T152R T152R (Lachnospiraceae bacterium ND2006). Particulars: PAM TTTG; PAM-SCANR in E. coli, cutoff 1.67.
Series [8] deals with dLbCas12a-T152R-K538W-K595Y T152R,K538W,K595Y (Lachnospiraceae bacterium ND2006). Particulars: PAM-SCANR in E. coli.
Setting [9] is: PAM CCCC, not recognized by single mutant.

Some results are limits rather than exact numbers.

In the case of “crRNA targeting lacI promoter ; lacI promoter reporter, TTTC PAM”, the binding signal (normalized score) was determined as 2.96 in series [1] (PAM TTTC); 12 in series [2]; 12 in series [3] (PAM TTTC, printed column identical to T152R+K538W column).

“crRNA targeting lacI promoter ; lacI promoter reporter, TTCG PAM” returned a binding signal (normalized score) in series [4] (PAM TTCG) of 4.81.

With “crRNA targeting lacI promoter ; lacI promoter reporter, CCCC PAM”, the binding signal (normalized score) in series [5] (setting [9]) was less than 1.67; in series [6] (setting [9]) it was less than 1.67; in series [3] (PAM CCCC, PAM-SCANR in E. coli) it was 2.95; in series [4] (PAM CCCC) it was 3.87.

In turn, “crRNA targeting lacI promoter ; lacI promoter reporter, TTTG PAM” showed a binding signal (normalized score) in series [7] of 2.94.

The substance “crRNA targeting lacI promoter ; lacI promoter reporter, CCGC PAM” yielded a binding signal (normalized score) in series [1] (PAM CCGC) of 2.23.

For the substance “crRNA targeting lacI promoter ; lacI promoter reporter, TTTA PAM”, the binding signal (normalized score) in series [5] (PAM TTTA, PAM-SCANR in E. coli, cutoff 1.67, a second K538W column gives 11.18) is 4.71; in series [6] (PAM TTTA, TTTV lost in K595Y), less than 1.67.

In turn, “crRNA targeting lacI promoter ; lacI promoter reporter, TGGC PAM” returned a binding signal (normalized score) in series [8] (PAM TGGC) of 10.3.

In the case of “crRNA targeting lacI promoter ; lacI promoter reporter, AGCC PAM”, the binding signal (normalized score) in series [8] (PAM AGCC) worked out at 13.7.

For the substance “crRNA targeting lacI promoter ; lacI promoter reporter, TCGC PAM”, the binding signal (normalized score) in series [6] (PAM TCGC, PAM-SCANR in E. coli, cutoff 1.67) turned out to be 3.23.

These data come from patent US20210115421.
